Source: paper PMC7617869, “Molecular glues that inhibit deubiquitylase activity and inflammatory signaling” (Nature Structural & Molecular Biology, 2025)
“And” between values parts separate entries of the source, which are not always exact repeats. Identical values can stand only once.

Key:
Format in all cases: biochemical
[1] = biological target: BRISC BRCC45 D248R (Homo sapiens, UniProt P46736+Q15018+Q9NXR7, D248R); experiment: BRISC mutant IQF assay: BRCC45 D248R
Procedure: (§1) IQF assays were performed in DUB reaction buffer containing 50 mM HEPES–NaOH pH 7.0, 100 mM NaCl, 0.1 mg ml^−1 BSA, 1 mM DTT and 0.03% v/v Brij-35. […] The final concentration of BRISC WT, all BRISC mutants, HsBRISCΔLoop, MmBRISC and DrBRISCΔNΔC was 1 nM. Other enzymes were tested at the following concentrations: 5 nM ARISC (FL), 10 nM CfBRISCΔNΔC, 250 nM AMSH* (ref. [43]), 500 nM USP2 and 1 μM trypsin (Sigma, 9002-07-7). For Michaelis–Menten experiments, 1 nM BRISC with 0–1 μM IQF K63-linked diubiquitin substrate was used. Michaelis–Menten analyses and Lineweaver–Burk plots were calculated using GraphPad Prism (version 9.0).
(§2) To assess enzymatic activity, BRISC complexes were diluted to concentrations between 1 nM and 50 nM. […] Then, 20-μl enzyme reactions were carried out in 384-well black flat-bottom low-flange plates (Corning, 35373). DUB activity was measured using IQF K63-linked diubiquitin (LifeSensors, DU6303) at 50 nM. Cleaved diubiquitin was monitored by measuring fluorescence intensity (excitation, 544 nm; emission, 575 nm; dichroic mirror, 560 nm). Fluorescence intensity was measured every minute for 30 min at 30 °C. Fluorescence intensity units were plotted against time to generate a linear reaction progress curve, where the initial velocity (V0) corresponds to the gradient of the curve (typically achieved within 15 min). IC50 values were calculated using the GraphPad Prism (version 9.0) built-in dose–response equation for inhibitor concentration versus response (variable slope).

[2] = biological target: T1, BRISC (Homo sapiens, UniProt P46736+Q15018+Q9NXR7); experiment: BRISC DUB activity assay (IQF K63-linked diubiquitin); conditions: BRISC WT
T1 construct: made in house; host or cells: Spodoptera frugiperda (Sf9) insect cells, MultiBac
Procedure: as §1, §2

[3] = biological target: BRISC BRCC45 F140A (Homo sapiens, UniProt P46736+Q15018+Q9NXR7, F140A); experiment: BRISC mutant IQF assay: BRCC45 F140A
Procedure: as §1, §2

[4] = biological target: BRISC Abraxas2 T140A (Homo sapiens, UniProt P46736+Q15018+Q9NXR7, T140A); experiment: BRISC mutant IQF assay: Abraxas2 T140A; conditions: for Normalised V0: Abraxas2 T140A
Procedure: as §1, §2

[5] = biological target: BRISC BRCC36 W130A (Homo sapiens, UniProt P46736+Q15018+Q9NXR7, W130A); experiment: BRISC mutant IQF assay: BRCC36 W130A
Procedure: as §1, §2

[6] = biological target: BRISC BRCC45 R137A (Homo sapiens, UniProt P46736+Q15018+Q9NXR7, R137A); experiment: BRISC mutant IQF assay: BRCC45 R137A
Procedure: as §1, §2

[7] = biological target: BRISC BRCC36 L169A (Homo sapiens, UniProt P46736+Q15018+Q9NXR7, L169A); experiment: BRISC mutant IQF assay: BRCC36 L169A
Procedure: as §1, §2

[8] = biological target: BRISC BRCC45 C245A (Homo sapiens, UniProt P46736+Q15018+Q9NXR7, C245A); experiment: BRISC mutant IQF assay: BRCC45 C245A
Procedure: as §1, §2

B1: SHMT2: serine hydroxymethyltransferase 2, metabolic enzyme and endogenous inhibitor of BRISC DUB activity (protein)
chain: QLVRMAIRAQHSNAAQTQTGEANRGWTGQESLSDSDPEMWELLQREKDRQCRGLELIASENFCSRAALEALGSCLNNKYSEGYPGKRYYGGAEVVDEIELLCQRRALEAFDLDPAQWGVNVQPYSGSPANLAVYTALLQPHDRIMGLDLPDGGHLTHGYMSDVKRISATSIFFESMPYKLNPKTGLIDYNQLALTARLFRPRLIIAGTSAYARLIDYARMREVCDEVKAHLLADMAHISGLVAAKVIPSPFKHADIVTTTTHKTLRGTRSGLIFYRKGVKAVDPKTGREIPYTFEDRINFAVFPSLQGGPHNHAIAAVAVALKQACTPMFREYSLQVLKNARAMADALLERGYSLVSGGTDNHLVLVDLRPKGLDGARAERVLELVSITANKNTCPGDRSAITPGGLRLGAPALTSRQFREDDFRRVVDFIDEGVNIGLEVKSKTAKLQDFKSFLLKDSETSQRLANLRQRVEQFARAFPMPGFDEH
For B1, the “Normalised V0” value ([1]; SHMT2 0.00347222 nM) was 0.9357 and 1.056 and 1.018, the “Normalised V0” value ([1]; SHMT2 0.0347222 nM) was 0.8867 and 1.018 and 0.9695 and the “Normalised V0” value ([1]; SHMT2 0.347222 nM) was 0.882 and 0.7691 and 0.9453. For the same molecule, the “Normalised V0” value ([1]; SHMT2 1.04167 nM) was 0.8534 and 1.006 and 0.8339, the “Normalised V0” value ([1]; SHMT2 3.125 nM) was 0.5795 and 0.5378 and 0.6917 and the “Normalised V0” value ([1]; SHMT2 6.25 nM) was 0.5339 and 0.4364 and 0.5979. The “Normalised V0” value ([1]; SHMT2 12.5 nM) was 0.3281 and 0.3163 and 0.4228, the “Normalised V0” value ([1]; SHMT2 25 nM) was 0.3612 and 0.2677 and 0.38 and the “Normalised V0” value ([1]; SHMT2 200 nM) was 0.05731 and 0.07178 and 0.09996. For the same molecule, the “Normalised V0” value ([2]; SHMT2 0.00347222 nM) was 0.9504 and 1.044 and 0.9816, the “Normalised V0” value ([2]; SHMT2 0.0347222 nM) was 0.8685 and 1.128 and 1.002 and the “Normalised V0” value ([2]; SHMT2 0.347222 nM) was 0.5106 and 0.9767 and 0.8269. For the same molecule, the “Normalised V0” value ([2]; SHMT2 1.04167 nM) was 0.4439 and 0.8387 and 0.81, the “Normalised V0” value ([3]; SHMT2 0.00347222 nM) was 0.9456 and 0.9686 and 0.8245 and the “Normalised V0” value ([3]; SHMT2 0.0347222 nM) was 0.8694 and 1.026 and 0.8239. For the same molecule, the “Normalised V0” value ([3]; SHMT2 0.347222 nM) was 0.9307 and 0.9114 and 0.8975, the “Normalised V0” value ([3]; SHMT2 1.04167 nM) was 0.8692 and 0.886 and 0.7736 and the “Normalised V0” value ([3]; SHMT2 3.125 nM) was 0.8001 and 0.6891 and 0.7189. The “Normalised V0” value ([3]; SHMT2 6.25 nM) was 0.7321 and 0.6833 and 0.7086, the “Normalised V0” value ([3]; SHMT2 12.5 nM) was 0.4577 and 0.4521 and 0.5184 and the “Normalised V0” value ([3]; SHMT2 25 nM) was 0.3014 and 0.3302 and 0.288. The “Normalised V0” value ([3]; SHMT2 50 nM) was 0.2533 and 0.2485 and 0.2535, the “Normalised V0” value ([3]; SHMT2 100 nM) was 0.2137 and 0.184 and 0.161 and the “SHMT2 inhibition of BRISC mutant” value ([4]; Abraxas 2 T140A) was “reduced BRISC inhibition by SHMT2”. For the same molecule, the “Normalised V0” value ([4]; SHMT2 0.00347222 nM) was 0.9459 and 1.003 and 1.126, the “Normalised V0” value ([4]; SHMT2 0.0347222 nM) was 0.9478 and 0.9048 and 1.065 and the “Normalised V0” value ([4]; SHMT2 0.347222 nM) was 1.002 and 0.9158 and 1.209. The “Normalised V0” value ([4]; SHMT2 1.04167 nM) was 0.9422 and 0.8854 and 1.017, the “Normalised V0” value ([4]; SHMT2 3.125 nM) was 0.7382 and 0.7698 and 1.0401 and the “Normalised V0” value ([4]; SHMT2 6.25 nM) was 0.8737 and 0.7897 and 1.032. For the same molecule, the “Normalised V0” value ([4]; SHMT2 12.5 nM) was 0.7421 and 0.6608 and 0.8191, the “Normalised V0” value ([4]; SHMT2 25 nM) was 0.6241 and 0.5064 and 0.8208 and the “Normalised V0” value ([4]; SHMT2 100 nM) was 0.3175 and 0.5076. For the same molecule, the “Normalised V0” value ([4]; SHMT2 200 nM) was 0.2755 and 0.2287 and 0.3324, the “SHMT2 inhibition of BRISC mutant” value [5] was “reduced BRISC inhibition by SHMT2” and the “Normalised V0” value ([5]; SHMT2 0.00347222 nM) was 1.237 and 1.127 and 0.9914. The “Normalised V0” value ([5]; SHMT2 0.0347222 nM) was 1.202 and 1.0039 and 1.016, the “Normalised V0” value ([5]; SHMT2 0.347222 nM) was 1.306 and 1.037 and 1.029 and the “Normalised V0” value ([5]; SHMT2 1.04167 nM) was 1.133 and 0.9683 and 1.009. For the same molecule, the “Normalised V0” value ([5]; SHMT2 3.125 nM) was 1.059 and 0.8824 and 0.9607, the “Normalised V0” value ([5]; SHMT2 6.25 nM) was 1.076 and 0.9844 and 0.926 and the “Normalised V0” value ([5]; SHMT2 12.5 nM) was 0.9633 and 0.8672 and 0.8727. The “Normalised V0” value ([5]; SHMT2 25 nM) was 0.8129 and 0.833 and 0.8407, the “Normalised V0” value ([5]; SHMT2 50 nM) was 0.7117 and 0.7254 and 0.8132 and the “Normalised V0” value ([5]; SHMT2 100 nM) was 0.5212 and 0.5553 and 0.3708. For the same molecule, the “Normalised V0” value ([5]; SHMT2 200 nM) was 0.4561 and 0.482 and 0.3879, the “Normalised V0” value ([6]; SHMT2 0.00347222 nM) was 1.014 and 1.027 and 1.065 and the “Normalised V0” value ([6]; SHMT2 0.0347222 nM) was 1.097 and 0.9804 and 1.087. For the same molecule, the “Normalised V0” value ([6]; SHMT2 0.347222 nM) was 0.9721 and 1.019 and 0.9944, the “Normalised V0” value ([6]; SHMT2 1.04167 nM) was 0.7112 and 0.6836 and 0.8504 and the “Normalised V0” value ([6]; SHMT2 3.125 nM) was 0.4073 and 0.4138 and 0.6039. For the same molecule, the “Normalised V0” value ([6]; SHMT2 6.25 nM) was 0.3218 and 0.2523 and 0.3959, the “Normalised V0” value ([6]; SHMT2 12.5 nM) was 0.1807 and 0.195 and 0.2065 and the “Normalised V0” value ([6]; SHMT2 25 nM) was 0.1093 and 0.1844 and 0.1637. The “Normalised V0” value ([6]; SHMT2 50 nM) was 0.06765 and 0.12 and 0.1128, the “Normalised V0” value ([6]; SHMT2 100 nM) was 0.03288 and 0.04915 and 0.05253 and the “SHMT2 inhibition of BRISC BRCC45 mutants” value ([6]; b47 speaks of all BRCC45 mutants) was “without affecting SHMT2 inhibition”. The “SHMT2 inhibition of BRISC mutant” value [7] was “reduced BRISC inhibition by SHMT2”, the “Normalised V0” value ([7]; SHMT2 0.00347222 nM) was 1.281 and 0.8219 and 0.8866 and the “Normalised V0” value ([7]; SHMT2 0.0347222 nM) was 1.039 and 0.8402 and 0.9713. The “Normalised V0” value ([7]; SHMT2 0.347222 nM) was 1.104 and 0.8836 and 0.9494, the “Normalised V0” value ([7]; SHMT2 1.04167 nM) was 1.083 and 0.823 and 0.89 and the “Normalised V0” value ([7]; SHMT2 3.125 nM) was 0.9817 and 0.7218 and 0.8098. The “Normalised V0” value ([7]; SHMT2 6.25 nM) was 1.047 and 0.8687 and 0.8472, the “Normalised V0” value ([7]; SHMT2 12.5 nM) was 0.7117 and 0.4856 and 0.677 and the “Normalised V0” value ([7]; SHMT2 25 nM) was 0.5132 and 0.7026 and 0.4911. The “Normalised V0” value ([7]; SHMT2 50 nM) was 0.4474 and 0.4092 and 0.7591, the “Normalised V0” value ([8]; SHMT2 0.00347222 nM) was 0.9588 and 1.144 and 1.038 and the “Normalised V0” value ([8]; SHMT2 0.0347222 nM) was 0.8809 and 1.071 and 0.9852. For the same molecule, the “Normalised V0” value ([8]; SHMT2 0.347222 nM) was 0.7622 and 1.011 and 1.053, the “Normalised V0” value ([8]; SHMT2 1.04167 nM) was 0.7409 and 0.9691 and 1.004 and the “Normalised V0” value ([8]; SHMT2 3.125 nM) was 0.5581 and 0.7111 and 0.7493. For the same molecule, the “Normalised V0” value ([8]; SHMT2 6.25 nM) was 0.4848 and 0.6695 and 0.6719, the “Normalised V0” value ([8]; SHMT2 12.5 nM) was 0.4215 and 0.5643 and 0.477 and the “Normalised V0” value ([8]; SHMT2 25 nM) was 0.501 and 0.3965 and 0.329. The “Normalised V0” value ([8]; SHMT2 50 nM) was 0.391 and 0.3153 and 0.2153, the “Normalised V0” value ([8]; SHMT2 100 nM) was 0.3584 and 0.2521 and 0.1837 and the “Normalised V0” value ([8]; SHMT2 200 nM) was 0.2257 and 0.1737 and 0.1153.
